Residue numbers refer to the chain shown, from its start. Numbers in names are those of the source.
Key:
[1] = target: T1, Recombinant Human DLL4 (delta-like protein 4) (human, UniProt Q9NR61 27-524); assay: ECL (MSD) binding assay, Fab on immobilized DLL4
T1 construct: Bought recombinant human DLL4 (R&D Systems Cat#1506-D4/CF); also called rHuman DLL4; Delta-like 4

[2] = target: T1, Recombinant Human DLL4 (delta-like …); assay: ELISA, Fab on plate-coated DLL4
[3] = target: T2, Recombinant Human DLL4 (delta-like protein 4) (human, UniProt Q9NR61 27-524); assay: ECL (MSD) binding assay, Fab on immobilised recombinant human DLL4
T2 construct: also called rHuman DLL4; Delta-like 4

[4] = target: T2, Recombinant Human DLL4 (delta-like …); assay: ELISA, Fab on coated DLL4, absorbance at 450 nm
[5] = target: T2, Recombinant Human DLL4 (delta-like …); assay: ELISA on coated DLL4, Fab at 25 nM (2-fold serial dilution)
[6] = target: T2, Recombinant Human DLL4 (delta-like …); assay: ELISA on coated DLL4, Fab at 12.5 nM (2-fold serial dilution)
[7] = target: T2, Recombinant Human DLL4 (delta-like …); assay: ELISA on coated DLL4, Fab at 50 nM (2-fold serial dilution)
[8] = target: T2, Recombinant Human DLL4 (delta-like …); assay: ELISA on coated DLL4, Fab at 6.25 nM (2-fold serial dilution)
[9] = target: T2, Recombinant Human DLL4 (delta-like …); assay: ELISA on coated DLL4, Fab at 3.125 nM (2-fold serial dilution)
[10] = target: T2, Recombinant Human DLL4 (delta-like …); assay: ELISA on coated DLL4, Fab at 100 nM (2-fold serial dilution)
[11] = target: T3, Recombinant Human DLL4 (R&D Systems Cat#1506-D4/CF) (human, UniProt Q9NR61 27-524); assay: ECL (MSD) multispot binding assay, antigen spotted on plate, 20 nM Fab;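 note: purified Fab incubated 1 h at 20 °C on antigen-spotted plate, bound Fab revealed with TAG detection antibody, ECL read, antigen signal divided by same-well blank, ratio ≥4 counted as hit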
T3 construct: Bought recombinant protein; also called delta-like protein 4; rHuman DLL4

[12] = target: T4, rHuman Notch-1/Fc Chimera, CF (R&D Systems Cat#3647-TK) (human, UniProt P46531 19-526); assay: as above
T4 construct: Bought recombinant protein; Fc part of the bought chimera not given

[13] = target: T5, rHuman IGF-1 sR, (IGF-1 sR), CF (R&D Systems Cat#391-GR) (human, UniProt P08069 31-932); assay: as above
T5 construct: Bought recombinant soluble receptor; also called insulin-like growth factor-1 soluble receptor

[14] = target: T6, rHuman ErbB2/Fc Chimera, CF (R&D Systems Cat#1129-ER) (human, UniProt P04626 23-652); assay: as above
T6 construct: Bought recombinant protein; also called human epidermal growth factor 2 receptor; Fc part of the bought chimera not given

[15] = target: T7, rHuman P-Cadherin/Fc Chimera, CF (R&D Systems Cat#861-PC) (human, UniProt P22223 108-654); assay: as above
T7 construct: Bought recombinant protein; Fc part of the bought chimera not given

[16] = target: T8, rHuman CD44/Fc Chimera, CF (R&D Systems Cat#3660-CD) (human, UniProt P16070 21-220); assay: as above
T8 construct: Bought recombinant protein; Fc part of the bought chimera not given

[17] = target: T9, rHuman EGF R/Fc Chimera, CF (R&D Systems Cat#344-ER) (human, UniProt P00533 25-645); assay: as above
T9 construct: Bought recombinant protein; also called epidermal growth factor receptor; Fc part of the bought chimera not given

[18] = target: T10, rHuman Erythropoietin R/Fc Chimera, CF (R&D Systems Cat#963-ER) (human, UniProt P19235 25-250); assay: as above
T10 construct: Bought recombinant protein; also called EPO R; EPO R/Fc; Fc part of the bought chimera not given
T10 sequence (looked up): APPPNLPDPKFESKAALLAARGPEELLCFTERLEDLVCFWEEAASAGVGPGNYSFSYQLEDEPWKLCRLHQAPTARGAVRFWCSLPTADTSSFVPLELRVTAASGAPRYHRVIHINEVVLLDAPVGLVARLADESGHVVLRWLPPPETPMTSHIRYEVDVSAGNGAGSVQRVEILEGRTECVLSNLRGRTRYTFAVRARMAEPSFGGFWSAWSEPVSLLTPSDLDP

[19] = target: T11, rHuman HGF R/c-MET/Fc Chimera, CF (R&D Systems Cat#358-MT/CF) (human, UniProt P08581 25-932); assay: as above
T11 construct: Bought recombinant protein; also called HGF R/Fc; hepatocyte growth factor receptor; Fc part of the bought chimera not given
T11 sequence (P08581 25-932, change not shown): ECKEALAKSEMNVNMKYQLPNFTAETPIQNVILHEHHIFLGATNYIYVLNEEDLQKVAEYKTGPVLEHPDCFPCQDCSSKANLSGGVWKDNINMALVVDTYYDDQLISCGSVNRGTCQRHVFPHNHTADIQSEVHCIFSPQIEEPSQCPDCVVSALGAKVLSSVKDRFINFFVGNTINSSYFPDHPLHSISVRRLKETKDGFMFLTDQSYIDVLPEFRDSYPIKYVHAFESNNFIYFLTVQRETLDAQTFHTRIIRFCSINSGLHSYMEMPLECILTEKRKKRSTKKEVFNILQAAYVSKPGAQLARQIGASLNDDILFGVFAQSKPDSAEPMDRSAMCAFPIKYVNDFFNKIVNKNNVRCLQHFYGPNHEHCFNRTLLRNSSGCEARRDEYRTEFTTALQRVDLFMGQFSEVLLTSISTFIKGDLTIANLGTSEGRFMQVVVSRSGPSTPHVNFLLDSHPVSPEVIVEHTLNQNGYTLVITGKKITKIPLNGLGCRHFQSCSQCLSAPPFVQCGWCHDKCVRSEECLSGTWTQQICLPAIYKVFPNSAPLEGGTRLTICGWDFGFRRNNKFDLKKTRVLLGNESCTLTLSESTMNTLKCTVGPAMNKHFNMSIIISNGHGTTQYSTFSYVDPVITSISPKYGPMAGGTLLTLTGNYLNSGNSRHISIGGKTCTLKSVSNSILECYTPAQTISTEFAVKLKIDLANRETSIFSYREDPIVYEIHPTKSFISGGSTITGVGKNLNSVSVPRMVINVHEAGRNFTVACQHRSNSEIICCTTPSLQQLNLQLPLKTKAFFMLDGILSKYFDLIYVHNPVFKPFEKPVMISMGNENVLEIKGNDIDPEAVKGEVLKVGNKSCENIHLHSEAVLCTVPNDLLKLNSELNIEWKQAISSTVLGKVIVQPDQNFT

B1: Fab VH5-51_IGHD5-18*01>3_IGHJ4*01 G100K/G104T (KT) & V3-4_IGLJ1*01 S52R (Fab, V domains shown)
VH: EVQLVQSGAEVKKPGESLKISCKGSGYSFTSYWIGWVRQMPGKGLEWMGIIYPGDSDTRYSPSFQGQVTISADKSISTAYLQWSSLKASDTAMYYCARRKYSYTYDYFDYWGQGTLVTVSS
VL: QTVVTQEPSFSVSPGGTVTLTCGLSSGSVSTSYYPSWYQQTPGQAPRTLIYRTNTRSSGVPDRFSGSILGNKAALTITGAQADDESDYYCVLYMGSGISYVFGTGTKVTVL
notes: Tested as a Fab (VH-CH1 with His and Flag tags, lambda VL-CL); also called H:KT & L:S52R
ECL signal [1]: 85900 | ELISA signal [2]: 0.15

B2: Fab VH5-51_IGHD5-18*01>3_IGHJ4*01 G100K/G104T (KT) & V3-4_IGLJ1*01 R56D (Fab, V domains shown)
VH: B1 VH
VL: B1 VL with R52S, R56D
notes: Fab; also called H:KT & L:R56D
ECL signal [3]: 87400 | ELISA signal [4]: 0.19

B3: Fab VH5-51_IGHD5-18*01>3_IGHJ4*01 G100K/G104T (KT) & V3-4_IGLJ1*01 R56A (Fab, V domains shown)
VH: B1 VH
VL: B1 VL with R52S, R56A
notes: Fab; also called H:KT & L:R56A
ELISA signal [5]: 0.227 | ECL signal [3]: 83900 | ELISA signal [6]: 0.212 | ELISA signal [7]: 0.239 | ELISA signal [8]: 0.2 | ELISA signal [9]: 0.213 | ELISA signal [4]: 0.27 | ELISA signal [10]: 0.251

B4: Fab VH5-51_IGHD5-18*01>3_IGHJ4*01 G100K/G104T (KT) & V3-4_IGLJ1*01 R56G (Fab, V domains shown)
VH: B1 VH
VL: B1 VL with R52S, R56G
notes: Fab; also called H:KT & L:R56G
ECL signal [3]: 93700 | ELISA signal [4]: 0.19

B5: Fab VH3-23_IGHD2-21*01>3_IGHJ6*01 H100E/S108P/Y113G/Y110G & V2-13_IGLJ2*01 (Fab, V domains shown)
VH: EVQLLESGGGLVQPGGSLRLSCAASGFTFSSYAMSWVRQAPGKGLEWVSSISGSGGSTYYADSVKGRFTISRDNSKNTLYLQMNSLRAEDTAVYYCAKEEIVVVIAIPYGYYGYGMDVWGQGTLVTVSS
VL: SSELTQDPAVSVALGQTVRITCQGDSLRSYYASWYQQKPGQAPVLVIYGKNNRPSGIPDRFSGSSSGNTASLTITGAQAEDEADYYCNSRDSSGNHLVVFGGGTKLTVL
notes: Fab made in E. coli: VH joined to CH1 (with His and Flag tags, plasmid A) and VL to lambda CL (plasmid E); also called EPG Y110G
ECL signal/blank ratio [11]: 1.3 | ECL signal/blank ratio [12]: 1.6 | ECL signal/blank ratio [13]: 1.4 | ECL signal/blank ratio [14]: 1.3 | ECL signal/blank ratio [15]: 0.8 | ECL signal/blank ratio [16]: 1 | ECL signal/blank ratio [17]: 1.5 | ECL signal/blank ratio [18]: 2 | ECL signal/blank ratio [19]: 1
